From PMC5632138 (Journal of molecular biology, 2017)
Residue numbers refer to the chain shown, from its start.

How the values were obtained:
Test in all cases: BLI
[1] = target: T1, Full-length ETV4 Glu373Ala (UniProt P43268 1-484, Glu373Ala)
T1 sequence (looked up): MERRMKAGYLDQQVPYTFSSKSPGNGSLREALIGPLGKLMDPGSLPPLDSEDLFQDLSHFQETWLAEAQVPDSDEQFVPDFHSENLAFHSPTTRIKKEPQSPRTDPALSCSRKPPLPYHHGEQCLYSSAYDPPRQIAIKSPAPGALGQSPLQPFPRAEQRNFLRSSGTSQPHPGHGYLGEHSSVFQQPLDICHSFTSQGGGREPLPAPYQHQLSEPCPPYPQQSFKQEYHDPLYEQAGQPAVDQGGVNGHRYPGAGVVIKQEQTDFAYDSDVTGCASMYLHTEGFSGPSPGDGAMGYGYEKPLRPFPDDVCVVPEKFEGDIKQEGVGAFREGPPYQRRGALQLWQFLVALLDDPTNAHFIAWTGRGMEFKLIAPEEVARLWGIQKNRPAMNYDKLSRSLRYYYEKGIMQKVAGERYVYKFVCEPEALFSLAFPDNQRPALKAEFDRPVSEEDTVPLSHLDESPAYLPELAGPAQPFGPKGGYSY

[2] = target: Full-length FOS (UniProt P01100 1-380)
[3] = target: T2, Full-length ETV4 Thr363Ala (UniProt P43268 1-484, Thr363Ala)
T2 sequence (looked up): T1 sequence (looked up) with T363A, A373E

[4] = target: T3, Full-length ETV4 Lys370Ala (UniProt P43268 1-484, Lys370Ala)
T3 sequence (looked up): T1 sequence (looked up) with K370A, A373E

[5] = target: T4, Full-length ETV4 (ETV4^1–484) (UniProt P43268 1-484)
T4 sequence (looked up): T1 sequence (looked up) with A373E

Sequence of Full-length FOS (P01100 whole entry): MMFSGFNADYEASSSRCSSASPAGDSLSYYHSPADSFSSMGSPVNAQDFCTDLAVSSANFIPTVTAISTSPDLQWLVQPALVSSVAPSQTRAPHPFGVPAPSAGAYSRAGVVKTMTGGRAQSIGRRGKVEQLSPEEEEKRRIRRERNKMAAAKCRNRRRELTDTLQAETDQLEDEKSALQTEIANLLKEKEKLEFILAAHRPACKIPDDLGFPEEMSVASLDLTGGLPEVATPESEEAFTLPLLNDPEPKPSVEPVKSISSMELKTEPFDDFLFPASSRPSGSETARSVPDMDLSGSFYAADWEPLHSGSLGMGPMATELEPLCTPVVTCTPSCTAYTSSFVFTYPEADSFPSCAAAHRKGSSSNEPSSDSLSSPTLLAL

B1: MED25 ACID (residues 391–553), biotinylated ligand for biolayer interferometry (domain or fragment, human, UniProt Q71SY5 391-553, looked up)
chain: GQQSVSNKLLAWSGVLEWQEKPKPASVDANTKLTRSLPCQVYVNHGENLKTEQWPQKLIMQLIPQQLLTTLGPLFRNSRMVQFHFTNKDLESLKGLYRIMGNGFAGCVHFPHTAPCEVRVLMLLYSSKKKIFMGLIPYDQSGFVNGIRQVITNHKQVQQQKLE
modifications: biotin (biotinylated; D-biotin added at the induction point)
In the case of B1, the binding result [1] is reported as “binds”, the Kd [2] is reported as 9 nM and the binding result [3] is reported as “binds”. The binding result [4] was “binds” and the Kd [5] was 5 nM.
